One test addresses T1, oxytocin receptor (Rattus norvegicus, UniProt P70536).
T1 construct: cell membranes prepared from rat uterus; from tissue; host or cells: rat uterus membranes
T1 sequence (P70536 1-388): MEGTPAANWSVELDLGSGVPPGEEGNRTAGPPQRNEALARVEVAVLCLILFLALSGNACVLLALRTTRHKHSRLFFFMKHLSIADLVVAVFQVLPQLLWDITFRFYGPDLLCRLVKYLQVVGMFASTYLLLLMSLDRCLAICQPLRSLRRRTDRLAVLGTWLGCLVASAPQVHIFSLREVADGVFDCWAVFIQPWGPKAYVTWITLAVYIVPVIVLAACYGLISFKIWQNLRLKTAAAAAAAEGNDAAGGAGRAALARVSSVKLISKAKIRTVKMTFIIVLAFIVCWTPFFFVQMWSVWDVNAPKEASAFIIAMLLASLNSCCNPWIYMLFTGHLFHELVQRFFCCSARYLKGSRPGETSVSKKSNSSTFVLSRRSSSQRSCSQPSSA
Briefly: 3H-oxytocin binding inhibition, rat uterus cell membranes. To be noted: for % Inhibition at 1 μM Oxytocin Receptor (Table 30) / % Inhibition at 1 μM Oxytocin Receptor (Table 29): rat uterus membranes, Re-complexed; for activity at oxytocin receptor: within the Table 30 series. The protocol: The screening of metallopeptides for binding to oxytocin receptor was done using cell membranes prepared from rat uterus. […] The membrane preparations (10-50 μg/well) were incubated with […] ^3H-oxytocin in HEPES Buffer containing 0.2% bovine serum albumin along with a test compound (1 μM final assay concentration) for 2 hours at 4° C. Non-specific binding was determined by addition of 10^−6 M oxytocin instead of the test compound. After incubation, the membranes were filtered and washed three times with ice-cold PBS. The membranes were air-dried and punched directly into scintillation vials. After addition of the scintillation cocktail, the vials were capped and gently shaken for 12 hours to dissolve the radioactivity contained in the filters. The vials were then read for tritium counts in a scintillation counter. Specific binding was determined as the radioactivity in wells containing ^3H-oxytocin alone minus the radioactivity in wells containing 10^−6 M oxytocin. The assay was performed in triplicates. The activity profile for the test compounds were generated by their ability to inhibit specific binding of the radiotracer to its receptor.

For the next test, the target named is T2, vasopressin-1 receptor (Rattus norvegicus, UniProt P30560).
T2 construct: cell membranes prepared from rat liver; from tissue; host or cells: rat liver membranes
T2 sequence (P30560 whole entry): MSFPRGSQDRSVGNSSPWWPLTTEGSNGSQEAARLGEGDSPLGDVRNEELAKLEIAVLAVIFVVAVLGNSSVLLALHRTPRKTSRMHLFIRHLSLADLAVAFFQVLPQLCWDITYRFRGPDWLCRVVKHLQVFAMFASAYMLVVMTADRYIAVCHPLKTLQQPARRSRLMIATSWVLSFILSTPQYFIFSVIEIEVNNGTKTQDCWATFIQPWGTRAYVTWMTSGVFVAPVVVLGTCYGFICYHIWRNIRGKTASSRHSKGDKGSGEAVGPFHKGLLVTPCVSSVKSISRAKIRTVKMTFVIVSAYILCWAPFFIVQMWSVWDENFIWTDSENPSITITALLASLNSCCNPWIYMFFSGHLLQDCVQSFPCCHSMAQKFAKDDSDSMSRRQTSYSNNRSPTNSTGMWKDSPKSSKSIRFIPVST
Kind of test: 3H-vasopressin-1 antagonist binding inhibition, rat liver cell membranes. To be noted: Re-complexed. The procedure: The screening of compounds for vasopressin-1 receptor was performed using cell membranes prepared from rat liver. The assay was essentially performed as described above for the oxytocin receptor assay. In this assay 2-4 nM ^3H-vasopressin-1 antagonist (obtained from Perkin Elemer-NEN Life Sciences) was used as the radiotracer and Arg^8-vasopressin (1 μM final concentration in the assay) was used to determine non-specific binding. The assay was performed in triplicates. Activity profile for the test compounds were generated by their ability to inhibit specific binding of the radiotracer to its receptor.

The target in the next test is T3, angiotensin-II receptor (Homo sapiens, UniProt P30556).
T3 construct: cell membranes obtained from human neuroblastoma cells (KAN-TS); endogenous in cells; host or cells: KAN-TS human neuroblastoma cells (membranes)
T3 sequence (P30556 1-359): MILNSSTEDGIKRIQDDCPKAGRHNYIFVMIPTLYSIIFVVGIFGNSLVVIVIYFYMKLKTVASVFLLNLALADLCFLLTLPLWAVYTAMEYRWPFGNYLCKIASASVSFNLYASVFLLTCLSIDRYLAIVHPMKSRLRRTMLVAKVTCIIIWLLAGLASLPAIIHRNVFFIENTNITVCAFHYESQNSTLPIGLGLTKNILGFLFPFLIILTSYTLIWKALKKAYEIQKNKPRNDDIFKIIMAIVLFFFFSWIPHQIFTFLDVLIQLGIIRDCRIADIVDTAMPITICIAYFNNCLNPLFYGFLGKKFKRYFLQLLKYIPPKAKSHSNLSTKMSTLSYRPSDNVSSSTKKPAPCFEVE
Kind of test: 125I-Tyr4,Sar1,Ile8-Angiotensin II binding inhibition, human neuroblastoma (KAN-TS) cell membranes. To be noted: for % Inhibition at 1 μM (Angiotensin Receptor): KAN-TS cell membranes, Re-complexed. The procedure: The screening of compounds for binding to the angiotensin-II receptor was performed using cell membranes obtained from human neuroblastoma cells (KAN-TS). The assay was performed in triplicates, generally as described in Example 4 for oxytocin, except for measurement of receptor bound radioactivity. For angiotensin, a radioiodinated tracer ligand was used (instead of a tritiated ligand), which radioiodinated tracer facilitated direct measurement of bound radioactivity using a gamma counter. A final 1-3 nM concentration of ^125I-Tyr^4, Sar^1, Ile^8-Angiotensin II ligand (obtained from Perkin Elemer-NEN Life Sciences) was used as radiotracer and angiotensin-II (1 μM final assay concentration) was used to measure non-specific binding. After filtration of the incubation medium, followed by washings, drying the filters and punching the filters into test tubes, the filters were counted for radioactivity in a gamma counter. An activity profile for the test compounds was generated by ability to inhibit specific binding of the radiotracer to its receptor.

Square brackets hold non-standard residues; d marks the D form. Ends that are not written are not given here. dChg = N[C@@H](C(=O)O)C1CCCCC1; Chg = N[C@H](C(=O)O)C1CCCCC1; Orn = NCCC[C@H](N)C(=O)O; Dap = NC[C@H](N)C(=O)O; Sar = CNCC(=O)O

In general, % Inhibition refers to the drop in the measured response relative to a control, in per cent. Turning to “Ala-Tyr-Ile-Cys-Gln-Asn-Ala-Pro-Leu-Gly-NH2 (AYICQNAPLG-NH2; not fully specified (bridges); printed as Ala-Tyr-Ile-Cys-Gln-Asn-Ala-Pro-Leu-Gly-NH2; also: oxorhenium(V) N3S1 metal chelate (Re=O)) [SEQ ID NO:157]”, in the test with oxytocin receptor, the “% Inhibition at 1 μM Oxytocin Receptor (Table 30)” value was 0%. In addition, in the test with vasopressin-1 receptor, the “% Inhibition at 1 μM Vasopressin-1 Receptor (Table 30)” value is 0%.
In the case of “Caca-D-Trp-Ile-Cys-Thr-Dap-Ala-Pro-Orn-NH2”, the “% Inhibition at 1 μM Oxytocin Receptor (Table 29)” value on oxytocin receptor is given as 0%.
For the substance “Ala-Tyr-Ile-Gln-Asn-Cys-Ala-Pro-Leu-Gly-NH2 (AYIQNCAPLG-NH2; not fully specified (bridges); printed as Ala-Tyr-Ile-Gln-Asn-Cys-Ala-Pro-Leu-Gly-NH2; also: oxorhenium(V) N3S1 metal chelate (Re=O)) [SEQ ID NO:155]”, the “activity at oxytocin receptor” value in the test with oxytocin receptor is listed as “maximal activity”. The “% Inhibition at 1 μM Vasopressin-1 Receptor (Table 30)” value with vasopressin-1 receptor is given as 0%.
With “Ala-Tyr-Ile-Gln-Asn-Ala-Ala-Leu-Cys-Gly-NH2 (AYIQNAALCG-NH2; not fully specified (bridges); printed as Ala-Tyr-Ile-Gln-Asn-Ala-Ala-Leu-Cys-Gly-NH2; also: oxorhenium(V) N3S1 metal chelate (Re=O)) [SEQ ID NO:151]”, the “% Inhibition at 1 μM Oxytocin Receptor (Table 30)” value with oxytocin receptor amounted to 0%. Also, the “% Inhibition at 1 μM Vasopressin-1 Receptor (Table 30)” value in the test with vasopressin-1 receptor was found to be 0%.
With “Sar-Arg-Val-Tyr-Ile-His-Gly-Cys-Thr ([Sar]RVYIHGCT; not fully specified (bridges); printed as Sar-Arg-Val-Tyr-Ile-His-Gly-Cys-Thr; also: oxorhenium(V) N3S1 metal chelate (Re=O)) [SEQ ID NO:160]”, the “% Inhibition at 1 μM (Angiotensin Receptor)” value in the test with angiotensin-II receptor came to 5%.
As to “Caca-D-Trp-Ile-Thr-Dap-Cys-Ala-Pro-Orn-NH2”, on oxytocin receptor, the “% Inhibition at 1 μM Oxytocin Receptor (Table 29)” value amounted to 9%.
Take “Sar-Arg-Val-Tyr-Ile-His-Cys-Gly-Thr ([Sar]RVYIHCGT; not fully specified (bridges); printed as Sar-Arg-Val-Tyr-Ile-His-Cys-Gly-Thr; also: oxorhenium(V) N3S1 metal chelate (Re=O)) [SEQ ID NO:166]”: the “percent inhibition at angiotensin receptor compared” value with angiotensin-II receptor (Gly for Pro substitution) is “significantly less than in SEQ ID NO:161”.
As to [Chg][dW]CIT[Dap]AP[Orn]-NH2, the “% Inhibition at 1 μM Oxytocin Receptor (Table 29)” value on oxytocin receptor is recorded as 0%. Also, the “% Inhibition at 1 μM Vasopressin-1 Receptor (Table 29)” value at vasopressin-1 receptor is recorded as 0%.
For “Ala-Tyr-Ile-Gln-Asn-Ala-Ala-Cys-Leu-Gly-NH2 (AYIQNAACLG-NH2; not fully specified (bridges); printed as Ala-Tyr-Ile-Gln-Asn-Ala-Ala-Cys-Leu-Gly-NH2; also: oxorhenium(V) N3S1 metal chelate (Re=O)) [SEQ ID NO:152]”, in the test with oxytocin receptor, the “% Inhibition at 1 μM Oxytocin Receptor (Table 30)” value amounted to 0%. Also, the “% Inhibition at 1 μM Vasopressin-1 Receptor (Table 30)” value in the test with vasopressin-1 receptor came out at 1%.
For the substance “Caca-D-Trp-Ile-Thr-Cys-Dap-Ala-Pro-Orn-NH2”, the “% Inhibition at 1 μM Oxytocin Receptor (Table 29)” value on oxytocin receptor is 0%. On vasopressin-1 receptor, the “% Inhibition at 1 μM Vasopressin-1 Receptor (Table 29)” value is 0%.
With “Caca-D-Trp-Ile-Thr-Dap-Ala-Ala-Cys-Orn-NH2”, the “% Inhibition at 1 μM Oxytocin Receptor (Table 29)” value at oxytocin receptor came to 0%. Further, the “% Inhibition at 1 μM Vasopressin-1 Receptor (Table 29)” value at vasopressin-1 receptor is 0%.
“Sar-Arg-Val-Cys-Tyr-Ile-His-Pro-Thr ([Sar]RVCYIHPT; not fully specified (bridges); printed as Sar-Arg-Val-Cys-Tyr-Ile-His-Pro-Thr; also: oxorhenium(V) N3S1 metal chelate (Re=O)) [SEQ ID NO:164]”: in the test with angiotensin-II receptor, the “% Inhibition at 1 μM (Angiotensin Receptor)” value was determined as 1%.
As to “Ala-Tyr-Ile-Gln-Asn-Ala-Cys-Ala-Leu-Gly-NH2 (AYIQNACALG-NH2; not fully specified (bridges); printed as Ala-Tyr-Ile-Gln-Asn-Ala-Cys-Ala-Leu-Gly-NH2; also: oxorhenium(V) N3S1 metal chelate (Re=O)) [SEQ ID NO:154]”, the “activity at oxytocin receptor” value with oxytocin receptor was “also active”. Also, the “% Inhibition at 1 μM Vasopressin-1 Receptor (Table 30)” value with vasopressin-1 receptor is 0%.
Turning to “Pmp-D-Trp-Cys-Ile-Thr-Dap-Ala-Pro-Orn-NH2”, the “% Inhibition at 1 μM Oxytocin Receptor (Table 29)” value on oxytocin receptor was found to be 0%.
On to “Ala-Tyr-Ile-Gln-Cys-Asn-Ala-Pro-Leu-Gly-NH2 (AYIQCNAPLG-NH2; not fully specified (bridges); printed as Ala-Tyr-Ile-Gln-Cys-Asn-Ala-Pro-Leu-Gly-NH2; also: oxorhenium(V) N3S1 metal chelate (Re=O)) [SEQ ID NO:156]”, for which the “activity at oxytocin receptor” value with oxytocin receptor is recorded as “also active”. Also, the “% Inhibition at 1 μM Vasopressin-1 Receptor (Table 30)” value with vasopressin-1 receptor came to 0%.
With “Ala-Tyr-Cys-Ile-Gln-Asn-Ala-Pro-Leu-Gly-NH2 (AYCIQNAPLG-NH2; not fully specified (bridges); printed as Ala-Tyr-Cys-Ile-Gln-Asn-Ala-Pro-Leu-Gly-NH2; also: oxorhenium(V) N3S1 metal chelate (Re=O)) [SEQ ID NO:158]”, the “% Inhibition at 1 μM Oxytocin Receptor (Table 30)” value with oxytocin receptor came to 6%. For the same substance, in the test with vasopressin-1 receptor, the “% Inhibition at 1 μM Vasopressin-1 Receptor (Table 30)” value came to 1%.
In the case of “Caca-D-Trp-Ile-Thr-Dap-Ala-Ala-Orn-Cys-NH2”, at oxytocin receptor, the “% Inhibition at 1 μM Oxytocin Receptor (Table 29)” value is 0%.
In the case of “Ala-Tyr-Ile-Gln-Asn-Ala-Pro-Leu-Gly-Cys-NH2 (AYIQNAPLGC-NH2; not fully specified (bridges); printed as Ala-Tyr-Ile-Gln-Asn-Ala-Pro-Leu-Gly-Cys-NH2; also: oxorhenium(V) N3S1 metal chelate (Re=O)) [SEQ ID NO:149]”, in the test with oxytocin receptor, the “% Inhibition at 1 μM Oxytocin Receptor (Table 30)” value worked out at 6%. Besides, in the test with vasopressin-1 receptor, the “% Inhibition at 1 μM Vasopressin-1 Receptor (Table 30)” value came out at 0%.
Take “Ala-Tyr-Ile-Gln-Asn-Ala-Cys-Pro-Leu-Gly-NH2 (AYIQNACPLG-NH2; not fully specified (bridges); printed as Ala-Tyr-Ile-Gln-Asn-Ala-Cys-Pro-Leu-Gly-NH2; also: oxorhenium(V) N3S1 metal chelate (Re=O)) [SEQ ID NO:153]”: in the test with oxytocin receptor, the “% Inhibition at 1 μM Oxytocin Receptor (Table 30)” value is reported as 2%. For the same substance, the “% Inhibition at 1 μM Vasopressin-1 Receptor (Table 30)” value with vasopressin-1 receptor is 0%.
For the substance “Caca-D-Trp-Ile-Thr-Dap-Ala-Cys-Pro-Orn-NH2”, the “% Inhibition at 1 μM Oxytocin Receptor (Table 29)” value on oxytocin receptor is reported as 0%. Further, the “% Inhibition at 1 μM Vasopressin-1 Receptor (Table 29)” value on vasopressin-1 receptor was 0%.
Take [dChg][dW]CIT[Dap]AP[Orn]-NH2: on oxytocin receptor, the “% Inhibition at 1 μM Oxytocin Receptor (Table 29)” value is 0%. Besides, the “% Inhibition at 1 μM Vasopressin-1 Receptor (Table 29)” value on vasopressin-1 receptor is listed as 8%.
With “Ala-Tyr-Ile-Gln-Asn-Ala-Ala-Leu-Gly-Cys-NH2 (AYIQNAALGC-NH2; not fully specified (bridges); printed as Ala-Tyr-Ile-Gln-Asn-Ala-Ala-Leu-Gly-Cys-NH2; also: oxorhenium(V) N3S1 metal chelate (Re=O)) [SEQ ID NO:150]”, in the test with oxytocin receptor, the “% Inhibition at 1 μM Oxytocin Receptor (Table 30)” value turned out to be 0%. Further, the “% Inhibition at 1 μM Vasopressin-1 Receptor (Table 30)” value with vasopressin-1 receptor is on record as 0%.
For the substance “Caca-D-Trp-Ile-Thr-Dap-Ala-Cys-Ala-Orn-NH2”, on oxytocin receptor, the “% Inhibition at 1 μM Oxytocin Receptor (Table 29)” value is on record as 0%. Besides, the “% Inhibition at 1 μM Vasopressin-1 Receptor (Table 29)” value at vasopressin-1 receptor came to 0%.

Source of the values: patent US20050014193A1, “Identification of target-specific folding sites in peptides and proteins” (priority 2003, published 2005).
